The values that follow come from US11155596B2, “Polypeptide” (AFFIBODY AB, priority 2016, dated 2021).

The test system of data set [1] is PD-L1 expressing MDA-MB-231 cells. As to the kind of experiment: Cell binding analysis by FACS, MDA-MB-231 cells. Format: cell-based. The conditions noted are these: 0.625 μg/ml complex or antibody (anti-PD-L1 antibody 1 μg/ml), negative control 69. As for the experimental part: Cells incubated with buffer alone were used as negative controls. The cells were incubated for 1 h at 8° C. in the dark, washed twice with 100 μl staining buffer, and resuspended in 100 μl of staining buffer containing 2.5 μg/ml of a goat-anti-human IgG-Alexa488 (Molecular Probes, cat. no. A11013) or, for cells stained with the positive control antibody, goat anti-mouse IgG-Alexa647 antibody (Life Technologies, cat. No. A21236). The cells were incubated for 1 h at 8° C. in the dark, washed twice with 100 μl staining buffer and resuspended in 300 μl of staining buffer. Data from 10,000 cells were obtained using a FACS Calibur ([…]) and the data was analyzed using Flowing software 2.5.0 (Turku University). Mean fluorescence intensity (MFI) was used as a read out of binding capacity.
(A flow cytometer gives signals particle by particle.)

The nature of data set [2]: Circular dichroism (CD) spectroscopy, variable temperature measurement. Format: physicochemical. The conditions noted are these: 1 mM EDTA, pH 7.2; for Tm (° C.): 0.5 mg/ml in 20 mM HEPES, VTM 20 to 90° C. at 221 nm; for refolding, CD spectra before and after heating to 90° C.: 20 mM HEPES. As for the experimental part: Circular dichroism (CD) spectroscopy analysis: Two purified Z variants with a C-terminal cysteine, Z15168-Cys (SEQ ID NO:809) and Z15169-Cys (SEQ ID NO:810), were diluted to 0.5 mg/ml in 20 mM HEPES, 1 mM EDTA, pH 7.2. For each diluted Z variant, a CD spectrum at 250-195 nm was obtained at 20° C. In addition, a variable temperature measurement (VTM) was performed to determine the melting temperature (Tm). In the VTM, the absorbance was measured at 221 nm while the temperature was raised from 20 to 90° C., with a temperature slope of 5° C./min. A new CD spectrum was obtained at 20° C. after the heating procedure in order to study the refolding ability of the Z variants. The CD measurements were performed on a Jasco J-810 spectropolarimeter (Jasco Scandinavia AB) using a cell with an optical path length of 1 mm.
Circular dichroism (CD) spectroscopy analysis: A subset of the purified Hiss-tagged Z variants were analyzed by CD spectroscopy as described in Example 3, but with the exceptions that the analysis buffer was PBS and that the temperature was raised to 80° C. in the VTM.
A general note: Circular dichroism is the unequal absorption of left and right circularly polarised light.

For data set [3], the system named is MDA-MB-231 cells co-cultivated with PBMC. As to the kind of experiment: Co-culture of MDA-MB-231 and PBMC (mixed lymphocyte assay). Format: cell-based. The conditions noted are these: six days co-culture with PBMC; 200-0.064 nM. As for the experimental part:
Co-culture of MDA-MB-231 and PBMC: A mixed lymphocyte assay was used to analyze if the Ipi-based complexes could affect proliferation or the cytotoxic effect of T-cells and thereby increase the elimination of cancer cells. Herein, peripheral blood mononuclear cells (PBMC) and MDA-MB-231 cells were co-cultivated for six days and the number of T-cells and cancer cells were assessed. 20000 MDA-MB-231 cells, cultivated in DMEM containing 10% FBS, were pipetted per well of a flat-bottomed 96-well plate and were left to adhere to the bottom of the well by incubation at 37° C. in a humidified 5% CO2 atmosphere. Day 2 of the experiment, serial dilutions (200-0.064 nM) of the Ipi-based complexes were prepared in a separate plate using RPM11640 with L-glut (Lonza) supplemented with 10% FCS, and 1% Pen-Strep (Lonza, cat. no. DE17-603E). The DMEM medium was discarded from the MDA-MB-231 cells and 100 μl of the diluted complexes were added. PBMC were prepared form a buffy coat using Ficoll Paque PLUS (GE Healthcare, cat no. 17-1440-02). In brief, the buffy coat was diluted 2× in PBS. […] The cells were counted and adjusted to 1 million cells per ml in supplemented RPMI medium. […] At day 7 of the experiment, the number of MDA-MD-231 cells and CD3+ T-cells were counted by FACS. […]

In data set [1], “Lam: control antibody having the same CDR sequences and specificity as PD-1 targeting pembrolizumab; SEQ ID NO:815 and 816” registered an MFI of 62.
On to “Z15168-Cys: Z13091 mutated to start with AE instead of VD, with C-terminal addition of VDC”, for which, in data set [2], the “Tm (° C.)” value stood at 50 °C; the “refolding, CD spectra before and after heating to 90° C.” value is “Reversible folding”.
On the same counts, the results for “Z15169-Cys: Z13156 mutated to start with AE instead of VD, with C-terminal addition of VDC” are 58 °C and “Reversible folding”.
Regarding ipilimumab [reference compound], in data set [3], the “number of MDA-MB231 cells” value is “did not induce a concentration dependent decrease of the cancer cells”.
